Numbering of substitutions follows the chain as printed. Numbers in names are those of the source.

Substrate in the data set: Cc1cc(=O)oc2cc(O[C@@H]3O[C@@H](C(=O)O)[C@@H](O)[C@H](O)[C@H]3O)ccc12
As to the kind of experiment: purified protein.

B1: α-L-iduronidase (IDUA) (Homo sapiens) (protein)
chain: APHLVHVDAARALWPLRRFWRSTGFCPPLPHSQADQYVLSWDQQLNLAYVGAVPHRGIKQVRTHWLLELVTTRGSTGRGLSYNFTHLDGYLDLLRENQLLPGFELMGSASGHFTDFEDKQQVFEWKDLVSSLARRYIGRYGLAHVSKWNFETWNEPDHHDFDNVSMTMQGFLNYYDACSEGLRAASPALRLGGPGDSFHTPPRSPLSWGLLRHCHDGTNFFTGEAGVRLDYISLHRKGARSSISILEQEKVVAQQIRQLFPKFADTPIYNDEADPLVGWSLPQPWRADVTYAAMVVKVIAQHQNLLLANTTSAFPYALLSNDNAFLSYHPHPFAQRTLTARFQVNNTRPPHVQLLRKPVLTAMGLLALLDEEQLWAEVSQAGTVLDSNHTVGVLASAHRPQGPADAWRAAVLIYASDDTRAHPNRSVAVTLRLRGVPPGPGLVYVTRYLDNGLCSPDGEWRRLGRPVFPTAEQFRRMRAAEDPVAAAPRPLPAGGRLTLRPALRLPSLLLVHVCARPEKPPGQVTRLRALPLTQGQLVLVWSDEHVGSKCLWTYEIQFSQDGKAYTPVSRKPSTFNLFVFSPDTGAVSGSYRVRALDYWARPGPFSDPVPYLEVPVPRGPPSPGNP
Turning to B1, the Km was determined as 27.0 ± 2.3 µM.

B2: α-L-iduronidase (IDUA) (Homo sapiens; P533R) (protein)
chain: B1 chain with P506R
In the case of B2, the Km was found to be 35.3 ± 3.66 µM.
